The source of these data is the RNAGym collection of RNA variant scans (doi:10.1093/molbev/msab373).

The chains are these.
B1: Azoarcus group I ribozyme (parent)
chain: GUGCCUUGCGCCGGGAAACCACGCAAGGGAUGGUGUCAAAUUCGGCGAAACCUAAGCGCCCGCCCGGGCGUAUGGCAACGCCGAGCCAAGCUUCGGCGCCUGCGCCGAUGAAGGUGUAGAGACUAGACGGCACCCACCUAAGGCAAACGCUAUGGUGAAGGCAUAGUCCAGGGAGUGGCGAAAGUCACACAAACCGG

In the series the parent is B1. Description: reverse-splicing fitness (ratio to wild type); higher = more active; in vitro selection; Mg2+ level not given. The method in brief: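 An in vitro group I ribozyme library with randomized positions was T7-transcribed and gel-purified. In triplicate, 10 pmol RNA in EPPS pH 7.5 was reacted with 50 pmoles of a 30-nt RNA substrate for 1 h at 37 °C across several added MgCl2 levels (1–48 mM), then stopped with EDTA. Products were reverse transcribed from a substrate-complementary primer, PCR-amplified and sequenced (HiSeq 4000). Fitness is a variant's read proportion after selection over that before, normalised to wild type.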
Regarding C82G A111U A120U A145U C150U C169A U176C, the reverse-splicing fitness was determined as 0.0027.
For the variant C82G A111U A120G A145G C169A U176G, the reverse-splicing fitness stood at 0.00491.
Then C82G A111U A120G A145G C169A U176A, with 0.0172; and C82G A111U A120G A145G C169A U176C, with 0.0214; and C82G A111U A120U A145C C169G U176C, with 0.00219.
C82G A111U A120U A145C C169G U176G: the reverse-splicing fitness was determined as 0.00158.
On to C82G A111U A120U A145C C169G U176A, for which the reverse-splicing fitness was found to be 0.00225.
Consider C82G A111U A120U A145C C150A C169U, for which the reverse-splicing fitness came to 0.0027.
Turning to C82G A111U A120U A145C C150A C169A, the reverse-splicing fitness turned out to be 0.00264.
Then C82G A111U A120U A145C C150A C169G, with 0.00272; and C82G A111U A120U A145C C150G, with 0.00763; and C82G A111U A120U A145C C150A, with 0.00458.
For C82G A111U A120U A145C C150U, the reverse-splicing fitness is 0.0116.
Then C82G A111U A120U A145C C150G C169G U176A, with 0.00357.
Regarding C82G A111U A120U A145C C150G C169G U176C, the reverse-splicing fitness was found to be 0.00235.
As for C82G A111U A120U A145C C150G C169G U176G, the reverse-splicing fitness came out at 0.00237.
Consider C82G A111U A120U A145G C150G C169G U176A, for which the reverse-splicing fitness was 0.00963.
For the variant C82G A111U A120U A145G C150G C169G U176C, the reverse-splicing fitness was 0.00596.
With C82G A111U A120U A145G C150G C169G U176G, the reverse-splicing fitness came to 0.00407.
As for C82G A111U A120G A145U C169G U176A, the reverse-splicing fitness was 0.0119.
As for C82G A111U A120G A145U C169G U176C, the reverse-splicing fitness was determined as 0.0162.
Regarding C82G A111U A120G A145U C169G U176G, the reverse-splicing fitness was determined as 0.00405.
With C82G A111U A120U A145G C150U C169U U176A, the reverse-splicing fitness came to 0.00518.
Consider C82G A111U A120U A145G C150U C169U U176G, for which the reverse-splicing fitness is 0.00302.
Take C82G A111U A120U A145G C150U C169U U176C: the reverse-splicing fitness is 0.00501.
Consider C82G A111U A120U A145C C150U U176C, for which the reverse-splicing fitness is 0.00545.
With C82G A111U A120U A145C C150U U176G, the reverse-splicing fitness was found to be 0.00297.
With C82G A111U A120U A145C C150U U176A, the reverse-splicing fitness came to 0.00477.
For the variant C82G A111U A120G A145U C150A C169A, the reverse-splicing fitness is 0.00975.
For C82G A111U A120G A145U C150A C169G, the reverse-splicing fitness was 0.00835.
In the case of C82G A111U A120G A145U C150A C169U it was 0.00711.
C82G A111U A120U A145U C150G: the reverse-splicing fitness amounted to 0.00782.
In the case of C82G A111U A120U A145U C150U it was 0.0274.
Then C82G A111U A120U A145U C150A, with 0.00721; and C82G A111U A120U A145U C150A C169A U176G, with 0.00209; and C82G A111U A120U A145U C150A C169A U176C, with 0.00255.
Turning to C82G A111U A120U A145U C150A C169A U176A, the reverse-splicing fitness is 0.00349.
Then C82G A111U A120U A145U C150A C169U, with 0.00264; and C82G A111U A120U A145U C150A C169G, with 0.00289.
Turning to C82G A111U A120U A145U C150A C169A, the reverse-splicing fitness was determined as 0.00224.
As for C82G A111U A120U A145C C150G C169A U176C, the reverse-splicing fitness was determined as 0.00248.
In the case of C82G A111U A120U A145C C150G C169A U176G it was 0.00246.
In the case of C82G A111U A120U A145C C150G C169A U176A it was 0.00316.
Take C82G A111U A120G A145U C150U C169A: the reverse-splicing fitness came out at 0.0117.
Turning to C82G A111U A120G A145U C150U C169U, the reverse-splicing fitness stood at 0.00944.
Then C82G A111U A120G A145U C150U C169G, with 0.0123.
Regarding C82G A111U A120G A145U, the reverse-splicing fitness stood at 0.0161.
C82G A111U A120G A145U C150A U176A: the reverse-splicing fitness was found to be 0.0108.
In the case of C82G A111U A120G A145U C150A U176G, the reverse-splicing fitness amounted to 0.00661.
On to C82G A111U A120G A145U C150A U176C, for which the reverse-splicing fitness was 0.0173.
For the variant C82G A111U A120G C150A C169G U176G, the reverse-splicing fitness is 0.00607.
Consider C82G A111U A120G C150A C169G U176A, for which the reverse-splicing fitness amounted to 0.0227.
C82G A111U A120G C150A C169G U176C: the reverse-splicing fitness is 0.0245.
For the variant C82G A111U A120U A145C C169U U176A, the reverse-splicing fitness was 0.00287.
Then C82G A111U A120U A145C C169U U176G, with 0.00178; and C82G A111U A120U A145C C169U U176C, with 0.00238; and C82G A111U A120G C150A C169U, with 0.00827.
As to C82G A111U A120G C150A C169A, the reverse-splicing fitness was determined as 0.0117.
On to C82G A111U A120G C150A C169G, for which the reverse-splicing fitness was 0.0106.
In the case of C82G A111U A120G U176C it was 0.0216; in that of C82G A111U A120G U176G, 0.00905; in that of C82G A111U A120G U176A, 0.0148.
Consider C82G A111U A120U A145C C150U C169A U176G, for which the reverse-splicing fitness came to 0.00176.
As to C82G A111U A120U A145C C150U C169A U176A, the reverse-splicing fitness came to 0.00212.
Take C82G A111U A120U A145C C150U C169A U176C: the reverse-splicing fitness was determined as 0.0022.
In the case of C82G A111U A120U A145C C150A C169G U176C, the reverse-splicing fitness came out at 0.00259.
In the case of C82G A111U A120U A145C C150A C169G U176A, the reverse-splicing fitness worked out at 0.00283.
Then C82G A111U A120U A145C C150A C169G U176G, with 0.00199; and C82G A111U A120U A145C C150A U176G, with 0.00209.
For the variant C82G A111U A120U A145C C150A U176C, the reverse-splicing fitness came out at 0.00373.
With C82G A111U A120U A145C C150A U176A, the reverse-splicing fitness came to 0.00311.
On to C82G A111U A120G C150A C169A U176G, for which the reverse-splicing fitness was found to be 0.00601.
With C82G A111U A120G C150A C169A U176A, the reverse-splicing fitness was 0.0207.
For C82G A111U A120G C150A C169A U176C, the reverse-splicing fitness is 0.0211.
Take C82G A111U A120U A145U C150G C169A: the reverse-splicing fitness was found to be 0.00362.
Regarding C82G A111U A120U A145U C150G C169U, the reverse-splicing fitness stood at 0.0032.
C82G A111U A120U A145U C150G C169G: the reverse-splicing fitness amounted to 0.00336.
For the variant C82G A111U A120G A145U C150G U176G, the reverse-splicing fitness was 0.0039.
C82G A111U A120G A145U C150G U176A: the reverse-splicing fitness was 0.00634.
Take C82G A111U A120G A145U C150G U176C: the reverse-splicing fitness was found to be 0.0104.
With C82G A111U A120U A145G C150A C169A U176G, the reverse-splicing fitness stood at 0.00334.
As to C82G A111U A120U A145G C150A C169A U176C, the reverse-splicing fitness was determined as 0.00438.
For the variant C82G A111U A120U A145G C150A C169A U176A, the reverse-splicing fitness amounted to 0.00821.
